Sequences and labels used below:
B1: FGFR1c^ecto (human FGFR1c ligand-binding domain, D2, D3 and D2-D3 linker) (receptor)
chain: DNTKPNRMPVAPYWTSPEKMEKKLHAVPAAKTVKFKCPSSGTPNPTLRWLKNGKEFKPDHRIGGYKVRYATWSIIMDSVVPSDKGNYTCIVENEYGSINHTYQLDVVERSPHRPILQAGLPANKTVALGSNVEFMCKVYSDPQPHIQWLKHIEVNGSKIGPDNLPYVQILKTAGVNTTDKEMEVLHLRNVSFEDAGEYTCLAGNSIGLSHHSAWLTVLEALEER
B2: αKlotho^ecto/ΔRBA (soluble αKlotho ectodomain lacking L544 to T565 of the KL2 β1α1 loop) (receptor)
chain: EPGDGAQTWARVSRPPAPEAAGLFQGTFPDGFLWAVGSAAYQTEGGWQQHGKGASIWDTFTHHPLAPPGDSRNASLPLGAPSPLQPATGDVASDSYNNVFRDTEALRELGVTHYRFSISWARVLPNGSAGVPNREGLRYYRRLLERLRELGVQPVVTLYHWDLPQRLQDAYGGWANRALADHFRDYAELCFRHFGGQVKYWITIDNPYVVAWHGYATGRLAPGIRGSPRLGYLVAHNLLLAHAKVWHLYNTSFRPTQGGQVSIALSSHWINPRRMTDHSIKECQKSLDFVLGWFAKPVFIDGDYPESMKNNLSSILPDFTESEKKFIKGTADFFALCFGPTLSFQLLDPHMKFRQLESPNLRQLLSWIDLEFNHPQIFIVENGWFVSGTTKRDDAKYMYYLKKFIMETLKAIKLDGVDVIGYTAWSLMDGFEWHRGYSIRRGLFYVDFLSQDKMLLPKSSALFYQKLIEKNGFPPLPENQPLEGTFPCDFAWGVVDNYIQVDTTLSQFTDKKRKSYCVDFAAIQPQIALLQEMHVTHFRFSLDWALILPLGNQSQVNHTILQYYRCMASELVRVNITPVVALWQPMAPNQGLPRLLARQGAWENPYTALAFAEYARLCFQELGHHVKLWITMNEPYTRNMTYSAGHNLLKAHALAWHVYNEKFRHAQNGKISIALQADWIEPACPFSQKDKEVAERVLEFDIGWLAEPIFGSGDYPWVMRDWLNQRNNFLLPYFTEDEKKLIQGTFDFLALSHYTTILVDSEKEDPIKYNDYLEVQEMTDITWLNSPSQVAVVPWGLRKVLNWLKFKYGDLPMYIISNGIDDGLHAEDDQLRVYYMQNYINEALKAHILDGINLCGYFAYSFNDRTAPRFGLYRYAADQFEPKASMKHYRKIIDSNGFPGPETLERFCPEEFTVCTECSFFHTRKS
notes: the mature protein is E34 to S959; Expressed and purified like the wild type (pEF1α/myc-His A); also called α-Klotho^ecto/deltaRBA; αKlotho^ecto/ΔRBA mutant
B3: FGF23^ΔSRBS (FGF23^WT carrying M149A/N150A/P151A) (ligand)
chain: YPNASPLLGSSWGGLIHLYTATARNSYHLQIHKNGHVDGAPHQTIYSALMIRSEDAGFVVITGVMSRRYLCMDFRGNIFGSHYFDPENCRFQHQTLENGYDVYHSPQYHFLVSLGRAKRAFLPGAAAPPYSQFLSRRNEIPLIHFNTPIPRQHTQSAEDDSERDPLNVLKPRARMTPAPAS

The target in data set [1] is T1, Soluble human α-Klotho ectodomain (αKlotho^ecto) (human, UniProt Q9UEF7 34-981).
T1 construct: also called wild-type αKlotho^ecto; soluble αKlotho
T1 sequence: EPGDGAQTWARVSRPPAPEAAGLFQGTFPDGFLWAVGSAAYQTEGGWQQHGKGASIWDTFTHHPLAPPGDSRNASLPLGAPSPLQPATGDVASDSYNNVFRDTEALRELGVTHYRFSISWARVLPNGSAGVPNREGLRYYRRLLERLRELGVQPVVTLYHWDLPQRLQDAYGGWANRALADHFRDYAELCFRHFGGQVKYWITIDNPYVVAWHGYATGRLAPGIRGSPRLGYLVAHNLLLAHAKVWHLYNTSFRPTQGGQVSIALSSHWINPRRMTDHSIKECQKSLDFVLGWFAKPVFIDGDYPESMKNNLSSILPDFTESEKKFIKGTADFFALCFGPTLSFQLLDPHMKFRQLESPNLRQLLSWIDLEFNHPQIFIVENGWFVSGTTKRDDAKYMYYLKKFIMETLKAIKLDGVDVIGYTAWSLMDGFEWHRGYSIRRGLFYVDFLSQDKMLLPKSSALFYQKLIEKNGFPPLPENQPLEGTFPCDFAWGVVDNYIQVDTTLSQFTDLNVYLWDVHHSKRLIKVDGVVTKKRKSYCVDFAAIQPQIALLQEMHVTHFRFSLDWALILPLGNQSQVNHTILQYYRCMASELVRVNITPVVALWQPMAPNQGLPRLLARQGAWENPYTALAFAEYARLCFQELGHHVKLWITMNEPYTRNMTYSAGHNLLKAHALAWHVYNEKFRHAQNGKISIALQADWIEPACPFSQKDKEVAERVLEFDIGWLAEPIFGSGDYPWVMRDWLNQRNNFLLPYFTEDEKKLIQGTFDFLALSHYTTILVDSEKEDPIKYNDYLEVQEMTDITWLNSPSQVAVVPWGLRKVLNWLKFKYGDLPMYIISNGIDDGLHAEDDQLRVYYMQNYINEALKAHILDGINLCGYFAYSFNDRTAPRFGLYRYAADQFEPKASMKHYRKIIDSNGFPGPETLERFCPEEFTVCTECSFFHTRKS
The experiment in a line: SEC-MALS of a 1:1 mixture, UV280 absorbance and molecular weight against retention time [panel A].

Data set [2] addresses B2. The data set is described as above.
Data set [3] concerns the target T2, FGF23 C-terminal tail peptide (FGF23^C-tail) (human).
T2 construct: The peptide may have been shorter, e.g. S180 to S205
T2 peptide: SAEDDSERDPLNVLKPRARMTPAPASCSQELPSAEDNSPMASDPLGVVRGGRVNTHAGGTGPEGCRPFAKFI
In words: fluorescence dye-based thermal shift assay (SYPRO Orange), 1:1 mixture; over the peak of αKlotho^ecto/ΔRBA alone the sheet prints 51 [right]. As for the experimental part:
Fluorescence Dye-Based Thermal Shift Assay: SYPRO Orange dye (#S6650, ThermoFisher Scientific, USA) was used as the fluorescent probe. 15 μl of 20 μM solutions of protein samples (wild-type and mutated forms of FGF23; αKlotho^ecto or αKlotho^{ecto/ΔRBA} alone; 1:1 mixtures of αKlotho^ecto or αKlotho^{ecto/ΔRBA} with FGF23 C-terminal tail peptide) were mixed with 5 μl of working dye solution (1:25 dilution) in duplicate in PCR strips. A temperature gradient from 4° C. to 100° C. at 1° C./minute increment was carried out with a CFX96 Touch™ Real-Time PCR Detection System (Bio-Rad, USA). Fluorescence was recorded as a function of temperature in real time. The melting temperature (Tm) was calculated with StepOne software v2.2 as the maximum of the derivative of the resulting SYPRO Orange fluorescence curves.

Data set [4] addresses T1, Soluble human α-Klotho ectodomain …. In words: SEC-MALS, 1:1:1 mixture with FGFR1c^ecto and αKlotho^ecto. Here is the method:
(§1) A Superdex 200 10/300 GL column (GE Healthcare, USA) was placed in-line between the HPLC pump (Waters 1525) and the HPLC UV (Waters 2998 Photodiode Array), laser light scattering, and refractive index detectors. Light scattering and refractive index detectors were calibrated following the manufacturer's guidelines. The refractive index increment (dn/dc) in which n is the refractive index and c is the concentration of the mixture of DDM and CHS in 20 mM Tris-HCl pH 8.0 buffer containing 300 mM NaCl, was determined offline using an Optilab T-rEX refractive index detector. Monomeric bovine serum albumin (#23210, Thermo Scientific, USA) was used as part of routine data quality control.
(§2) 60 ml or more of 25 mM HEPES pH 7.5 buffer containing 150 mM NaCl were passed through the system at a flow rate of 0.5 mL/min to equilibrate the Superdex 200 10/300 GL column and establish stable baselines for light scattering and refractive index detectors. Purified αKlotho^ecto, FGER1c^ecto (wild type or mutant), and FGF23 (wild type or mutant) proteins were mixed at a molar ratio of 1:1:1 and concentrated to 12.5 μM. 50 μl of protein samples with a molar equivalent of a heparin hexasaccharide (#H006, Iduron, Manchester, U.K.) were injected onto the gel filtration column, and the column eluent was continuously monitored for 280 nm absorbance, laser light scattering, and refractive index. […]
On the technique in general: In gel filtration, larger molecules generally elute earlier.

Data set [5] addresses B1. The experiment in a line: SEC-MALS, 1:1:1 ternary complex with FGFR1c^ecto and αKlotho^ecto. Here is the method: as §1, §2

For the molecule B1, the binding result in data set [1] is “binds”; in data set [2], “no binding”.

With B2, the “melting temperature (peak of derivative fluorescence) of the mixture” value in data set [3] stood at 57.5 °C.

With B3, the binding result in data set [4] and in data set [5] was “binds” throughout.

These data come from patent US20210054355A1 (NEW YORK UNIVERSITY, published 2021).
